This is an account of results in paper PMC4650826.

Assay [1] has as its target Hcp1 (hemolysin-coregulated protein 1) of Burkholderia pseudomallei, recombinant wildtype (B. pseudomallei). Put plainly: dynamic light scattering; 8 mg/mL; apparent molecular weight in solution.
The target is the same in assay [2]. Briefly: AUC.

Several values for one entry are separate records, joined by “and”; a condition that tells them apart may be missing. Equal values may be shown once.

With “Hcp1 (hemolysin-coregulated protein 1) of Burkholderia pseudomallei, recombinant wildtype (natural protein)”, the stoichiometry N in assay [1] was 12; in assay [2], 6 and 12.
